For experiment [1], the target named is TrkA, on human TF1 erythroleukemia cells (human (endogenous in TF1)) (UniProt P04629).
In experiment [2] the target is p75NTR, endogenous in rat primary hippocampal neurons (rat (endogenous in rat hippocampal neurons)) (UniProt P07174).

Drawing on paper PMC3364340, this text covers proliferative index, proliferation of human TF1 cells expressing TrkA and c-jun Ser63 phosphorylation in hippocampal neurons (Western blot, site-specific anti-phospho c-jun antibody), reduction with respect to hNGF or hNGFP61S for 3 substances.

Chain of UniProt P04629 (P04629 33-796): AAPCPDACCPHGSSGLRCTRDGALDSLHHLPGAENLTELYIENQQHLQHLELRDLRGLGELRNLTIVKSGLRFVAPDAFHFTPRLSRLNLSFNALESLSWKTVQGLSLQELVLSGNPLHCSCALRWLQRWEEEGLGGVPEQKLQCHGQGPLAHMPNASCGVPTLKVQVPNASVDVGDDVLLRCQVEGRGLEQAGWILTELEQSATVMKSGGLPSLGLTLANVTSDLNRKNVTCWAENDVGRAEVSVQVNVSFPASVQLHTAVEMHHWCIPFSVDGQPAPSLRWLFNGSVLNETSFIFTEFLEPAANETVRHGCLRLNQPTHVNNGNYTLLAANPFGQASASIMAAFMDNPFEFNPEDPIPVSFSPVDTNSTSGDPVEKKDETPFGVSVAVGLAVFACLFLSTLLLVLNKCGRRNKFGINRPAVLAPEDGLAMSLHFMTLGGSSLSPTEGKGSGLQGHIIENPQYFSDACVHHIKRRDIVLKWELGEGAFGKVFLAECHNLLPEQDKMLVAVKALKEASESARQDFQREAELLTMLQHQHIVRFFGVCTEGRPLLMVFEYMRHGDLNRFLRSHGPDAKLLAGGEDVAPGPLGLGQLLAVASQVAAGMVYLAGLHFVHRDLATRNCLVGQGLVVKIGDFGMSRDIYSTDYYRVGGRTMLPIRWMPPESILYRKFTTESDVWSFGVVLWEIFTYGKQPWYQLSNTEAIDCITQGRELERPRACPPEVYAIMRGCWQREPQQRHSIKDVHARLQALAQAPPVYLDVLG
Chain of UniProt P07174 (P07174 30-425): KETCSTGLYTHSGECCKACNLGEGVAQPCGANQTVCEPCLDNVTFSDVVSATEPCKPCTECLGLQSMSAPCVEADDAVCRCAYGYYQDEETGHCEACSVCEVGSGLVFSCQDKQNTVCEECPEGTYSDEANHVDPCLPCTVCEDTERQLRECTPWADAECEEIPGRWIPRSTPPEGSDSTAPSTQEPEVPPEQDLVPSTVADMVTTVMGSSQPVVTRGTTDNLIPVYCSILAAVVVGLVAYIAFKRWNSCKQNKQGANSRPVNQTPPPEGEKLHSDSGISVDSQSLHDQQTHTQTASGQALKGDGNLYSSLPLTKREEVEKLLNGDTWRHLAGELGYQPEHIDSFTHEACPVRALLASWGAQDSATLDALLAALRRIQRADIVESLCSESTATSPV

As to “hNGFP61S, human NGF tagged with the single-residue epitope P61S (ligand)”, the proliferative index, proliferation of human TF1 cells expressing TrkA in experiment [1] turned out to be 1.68 ng/mL. The substance “hNGFP61S/R100E, double mutant of human NGF ("painless" hNGF) (ligand)” showed a c-jun Ser63 phosphorylation in hippocampal neurons (Western blot, site-specific anti-phospho c-jun antibody), reduction with respect to hNGF or hNGFP61S in experiment [2] of 30%. This substance also displayed a proliferative index, proliferation of human TF1 cells expressing TrkA in experiment [1] of 1.89 ng/mL. Taken in the same sequence, the figures for “hNGFR100E, human NGF mutant R100E (from UniProt P01138 122-241) (ligand)” were 30% and 1.28 ng/mL.
